Drawing on PMC8911618, “Application of β-Glucosidase in a Biphasic System for the Efficient Conversion of Polydatin to Resveratrol” (Molecules, 2022), this text covers Km for 1 substance.

This series relates to T1, O=[N+]([O-])c1ccc(O[C@@H]2O[C@H](CO)[C@@H](O)[C@H](O)[C@H]2O)cc1.
T1 construct: signal peptide removed, starts at residue 29 with added Met; C-terminal His6 (reverse primer), pQE30, E. coli JM109, Ni-NTA
In words: purified protein. In kind it is biochemical, Sphingomonas sp. ATCC 31555. The following applies: McIlvaine buffer, pH 5.5, 45 °C, 0.1–20 mM pNPG.

As usually defined, the Km is the concentration of substrate that gives half-maximal velocity. Consider SpBGL1 (Sphingomonas sp. ATCC 31555), for which the Km came to 13.09 ± 3.43 mM.
